Results on two substances are retold here after paper PMC3776414.

The target of experiment [1] is Alexa Fluor 555-labeled E11C calmodulin mutant (UniProt P0DP23). Description: FRET or BRET. For orientation: In BRET a luciferase serves as donor, and the signal depends on an acceptor being close.
For experiment [2], the target named is Alexa Fluor 594-modified E11C CaM (UniProt P0DP23). In words: FRET or BRET.
Experiment [3] addresses calmodulin (CaM) cysteine mutant E11C (UniProt P0DP23). Description: solvatochromic fluorescence.
The target in experiment [4] is calmodulin (CaM) cysteine mutant M145C (UniProt P0DP23). Description: solvatochromic fluorescence.
For experiment [5], the target named is calmodulin (CaM) cysteine mutant M76C (UniProt P0DP23). Description: solvatochromic fluorescence.
The target of experiment [6] is calmodulin (CaM) cysteine mutant E11C (UniProt P0DP23). Description: FRET or BRET.

The substance “4DMN-labeled M13 peptide (M13, the calmodulin-binding peptide, with the 4DMN amino acid at position 8)” returned an FRET fluorescence increase (Ca2+-bound over apo-state) in experiment [1] of 23 fold. For the same substance, the FRET fluorescence increase at 611 nm in experiment [2] was 5.5 fold. In addition, in experiment [2], the increase of the direct fluorescence emission from 4DMN stood at 114 fold. The 4DMN fluorescence increase at 505 nm (Ca2+-bound complex over apo-state) in experiment [3] was 98 fold; in experiment [4], 43 fold; in experiment [5] it was 180 fold.
Substance “4DMN/Alexa 555-labeled M13 peptide (4DMN at position 8, Alexa Fluor 555 on an N-terminal cysteine)” returned an increase in the acceptor fluorescence after Ca2+ addition in experiment [6] of 4.9 fold.
